These are literature values, as cited in article PMC6707866.

One may read the Kd as the equilibrium constant for the complex coming apart.

The data set addresses Bag3 (Homo sapiens) (UniProt O95817).
UniProt O95817, sequence (O95817 2-575): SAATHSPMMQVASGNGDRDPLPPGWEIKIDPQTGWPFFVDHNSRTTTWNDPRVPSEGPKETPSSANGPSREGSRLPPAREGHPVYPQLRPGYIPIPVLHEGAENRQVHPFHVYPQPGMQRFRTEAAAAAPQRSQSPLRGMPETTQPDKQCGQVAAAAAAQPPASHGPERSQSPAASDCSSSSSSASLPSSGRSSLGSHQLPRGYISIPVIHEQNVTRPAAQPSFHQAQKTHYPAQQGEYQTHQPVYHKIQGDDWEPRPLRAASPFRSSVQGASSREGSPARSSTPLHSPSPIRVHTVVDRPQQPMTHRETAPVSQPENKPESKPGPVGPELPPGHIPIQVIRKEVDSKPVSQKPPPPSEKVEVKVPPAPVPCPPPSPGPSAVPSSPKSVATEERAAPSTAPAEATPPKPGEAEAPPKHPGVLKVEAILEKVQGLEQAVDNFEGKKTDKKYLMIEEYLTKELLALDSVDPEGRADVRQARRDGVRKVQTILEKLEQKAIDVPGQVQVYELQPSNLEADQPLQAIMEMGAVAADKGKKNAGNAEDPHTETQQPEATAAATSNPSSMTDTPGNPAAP

Take Hsp70 (from UniProt P0DMV8): the Kd is 25 nM.
